Source: paper PMC10544015 (Journal of Medicinal Chemistry, 2023)
“Also recorded” adds a separate entry of the source. Like-named read-outs stand apart in the source and are kept apart here. Bridge positions count the residues as written; N and C are the ends. Square brackets hold non-standard residues; d marks the D form. Triazole bridges read from a SMILES are 1,4-linked. Peptide text beside a SMILES is read from it. Lys(N3) = [N-]=[N+]=NCCCC[C@H](N)C(=O)O; Orn(N3) = [N-]=[N+]=NCCC[C@H](N)C(=O)O; Hpra = C#CCC[C@H](N)C(=O)O; Pra = C#CC[C@H](N)C(=O)O; Ahx = NCCCCCC(=O)O

Tests used:
human plasma = conditions: 37 °C
B16-BL6 cells = assay: LDH cytotoxicity assay in B16-BL6 cells; assay type: cell-based, mouse; conditions: peptides 100 to 6.25 µM, Pbn 2.5 mM, HOS solution
Panx1 channels [1] = target: T1, Panx1 channels (Homo sapiens, UniProt Q96RD7); assay: HOS-induced ATP release assay in EA.hy926 endothelial cells; assay type: cell-based
T1 construct: host or cells: EA.hy926 human endothelial cells
T1 sequence (Q96RD7 whole entry): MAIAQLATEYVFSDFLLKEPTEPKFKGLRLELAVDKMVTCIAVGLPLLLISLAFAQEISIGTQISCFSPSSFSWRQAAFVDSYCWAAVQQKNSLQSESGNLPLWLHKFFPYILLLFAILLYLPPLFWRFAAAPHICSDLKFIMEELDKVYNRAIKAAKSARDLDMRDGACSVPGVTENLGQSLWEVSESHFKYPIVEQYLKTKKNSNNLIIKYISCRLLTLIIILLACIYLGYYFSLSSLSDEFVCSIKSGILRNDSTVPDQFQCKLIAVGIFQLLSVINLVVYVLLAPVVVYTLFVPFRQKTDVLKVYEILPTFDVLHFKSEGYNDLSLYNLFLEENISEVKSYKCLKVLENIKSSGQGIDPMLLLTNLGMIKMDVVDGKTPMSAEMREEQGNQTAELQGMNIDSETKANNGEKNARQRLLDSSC
Procedure: Similar to B16-BL6 cells, a 2–3-fold enhancement of ATP release from EA.hy926 cells was observed upon HOS stimulation (Figure 7E). However, the absolute levels of ATP release were lower in these endothelial cells (around 300 vs 500–600 nM in B16-BL6 cells). As expected, Pbn reduced HOS-induced ATP release from EA.hy926 cells, albeit by a lower fraction than the one observed in B16-BL6 cells (Figure 7E vs7A). The reason for this different efficacy of Pbn is unknown but may be due to its nonspecific action on other ATP release channels or transporters,[68] of which the expression naturally varies among different cell types. […] The water-soluble double-stapled ^10Panx1 peptidomimetic SBL-PX1-206 reduced HOS-induced ATP release from EA.hy926 cells by about 25% at 12.5 μM. […] Stapled and double-stapled ^10Panx1 analogues were also not cytotoxic when tested at 100 and 12.5 μM in EA.hy926 cells (Supporting Information, Figure S8).
Triplicates were performed for each independent experiment.

Panx1 channels [2] = target: Panx1 channels (Mus musculus, UniProt Q9JIP4); assay: HOS-induced ATP release assay in B16-BL6 cells; conditions: B16-BL6, read-out: % ATP release inhibition at 100µM (in B16-BL6 cells)
Chain of Panx1 channels (Mus musculus, UniProt Q9JIP4) (Q9JIP4 whole entry): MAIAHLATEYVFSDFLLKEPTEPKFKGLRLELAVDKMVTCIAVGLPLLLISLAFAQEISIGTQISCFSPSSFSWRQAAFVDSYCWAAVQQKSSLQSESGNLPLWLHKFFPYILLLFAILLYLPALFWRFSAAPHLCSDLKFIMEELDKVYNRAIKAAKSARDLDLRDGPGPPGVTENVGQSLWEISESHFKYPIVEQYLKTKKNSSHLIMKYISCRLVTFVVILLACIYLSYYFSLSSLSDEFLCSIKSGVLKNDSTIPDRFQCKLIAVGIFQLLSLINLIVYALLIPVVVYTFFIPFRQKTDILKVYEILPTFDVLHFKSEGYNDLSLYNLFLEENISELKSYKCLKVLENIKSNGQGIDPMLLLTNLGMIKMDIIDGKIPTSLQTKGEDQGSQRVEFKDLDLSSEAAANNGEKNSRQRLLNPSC

circular dichroism = conditions: PBS (10 mM phosphate, 137 mM NaCl, 2.7 mM KCl); pH 7.4; rt °C; 100 uM

Molecule	helicity (circular dichroism) [%]	further results
Ac-*WRQ*AFVDSY-NH2		cleaved bond (human plasma; up to 24 h): A-F, major; also recorded: D-S, major; not cleaved (human plasma; up to 24 h): amide bonds within the macrocycle remained intact for several hours
CC(C)[C@H](NC(=O)[C@H](Cc1ccccc1)NC(=O)[C@H](C)NC(=O)[C@H](C)NC(=O)[C@H](CCC(N)=O)NC(=O)[C@H](CCCNC(=N)N)NC(=O)[C@@H](N)Cc1c[nH]c2ccccc12)C(=O)N[C@@H](CC(=O)O)C(=O)N[C@@H](CO)C(=O)N[C@@H](Cc1ccc(O)cc1)C(=O)O [^10Panx1, WRQAAFVDSY] (H-WRQAAFVDSY-OH)		cytotoxicity (extracellular LDH) (B16-BL6 cells): no cytotoxicity; inhibition at 100 µM (Panx1 channels [1]; EA.hy 926, read-out: % ATP release inhibition at 100µM (in EA.hy926 cells)): 24%; inhibition at 100 µM (Panx1 channels [2]): 19%
CC(=O)N[C@@H](CO)C(=O)N[C@@H](Cc1c[nH]c2ccccc12)C(=O)N[C@@H](CCCNC(=N)N)C(=O)N[C@@H](CCC(N)=O)C(=O)N[C@@H](C)C(=O)N[C@@H](C)C(=O)N[C@@H](Cc1ccccc1)C(=O)N[C@H]1Cc2cn(nn2)CCC[C@@H](C(N)=O)NC(=O)[C@H](Cc2ccc(O)cc2)NC(=O)[C@H](CO)NC(=O)[C@H](CC(=O)O)NC1=O (Ac-SWRQAAF[Pra]DSY[Orn(N3)]-NH2; triazole 8-12)	12	
CC(=O)N[C@@H](CO)C(=O)N[C@@H](Cc1c[nH]c2ccccc12)C(=O)N[C@@H](CCCNC(=N)N)C(=O)N[C@@H](CCC(N)=O)C(=O)N[C@@H](C)C(=O)N[C@@H]1Cc2cn(nn2)CCCC[C@@H](C(=O)N[C@@H](Cc2ccc(O)cc2)C(N)=O)NC(=O)[C@H](CC(=O)O)NC(=O)[C@H](C(C)C)NC(=O)[C@H](Cc2ccccc2)NC1=O	7	
CC(=O)N[C@@H](CO)C(=O)N[C@@H](Cc1c[nH]c2ccccc12)C(=O)N[C@@H](CCCNC(=N)N)C(=O)N[C@@H](CCC(N)=O)C(=O)N[C@@H](C)C(=O)N[C@H]1CCc2cn(nn2)CCCC[C@@H](C(=O)N[C@@H](Cc2ccc(O)cc2)C(N)=O)NC(=O)[C@H](CC(=O)O)NC(=O)[C@H](C(C)C)NC(=O)[C@H](Cc2ccccc2)NC1=O (Ac-SWRQA[Hpra]FVD[Lys(N3)]Y-NH2; triazole 6-10)	28	
CC(=O)N[C@@H](CO)C(=O)N[C@@H](Cc1c[nH]c2ccccc12)C(=O)N[C@@H](CCCNC(=N)N)C(=O)N[C@@H](CCC(N)=O)C(=O)N[C@@H](C)C(=O)N[C@@H](C)C(=O)N[C@H]1Cc2cn(nn2)CCCC[C@@H](C(N)=O)NC(=O)[C@H](CO)NC(=O)[C@H](CC(=O)O)NC(=O)[C@H](C(C)C)NC1=O (Ac-SWRQAA[Pra]VDS[Lys(N3)]-NH2; triazole 7-11)	37	
R-*WRQ**FVD*Y-NH2 (m = 1; n = 4; R = K-Ahx-)		cleaved bond (human plasma; up to 24 h): K-Ahx, major, 8 hours
WRQAAFVDSY		cleaved bond (human plasma; cited from earlier work): Trp74-Arg75; also recorded: Ala78-Phe79
CC(=O)N[C@@H]1Cc2cn(nn2)CCCC[C@@H](C(=O)N[C@@H](C)C(=O)N[C@@H](Cc2ccccc2)C(=O)N[C@H](C(=O)N[C@@H](CC(=O)O)C(=O)N[C@@H](CO)C(=O)N[C@@H](Cc2ccc(O)cc2)C(N)=O)C(C)C)NC(=O)[C@H](CCC(N)=O)NC(=O)[C@H](CCCNC(=N)N)NC(=O)[C@H](Cc2c[nH]c3ccccc23)NC1=O	18	
CC(=O)N[C@@H](CO)C(=O)N[C@@H](Cc1c[nH]c2ccccc12)C(=O)N[C@@H](CCCNC(=N)N)C(=O)N[C@@H](CCC(N)=O)C(=O)N[C@@H](C)C(=O)N[C@H]1Cc2cn(nn2)CCC[C@@H](C(=O)N[C@@H](Cc2ccc(O)cc2)C(N)=O)NC(=O)[C@H](CC(=O)O)NC(=O)[C@H](C(C)C)NC(=O)[C@H](Cc2ccccc2)NC1=O (Ac-SWRQA[Pra]FVD[Orn(N3)]Y-NH2; triazole 6-10)	17	
CC(=O)N[C@H]1CCc2cn(nn2)CCCC[C@@H](C(=O)N[C@@H](C)C(=O)N[C@@H](Cc2ccccc2)C(=O)N[C@H](C(=O)N[C@@H](CC(=O)O)C(=O)N[C@@H](CO)C(=O)N[C@@H](Cc2ccc(O)cc2)C(N)=O)C(C)C)NC(=O)[C@H](CCC(N)=O)NC(=O)[C@H](CCCNC(=N)N)NC(=O)[C@H](Cc2c[nH]c3ccccc23)NC1=O (Ac-[Hpra]WRQ[Lys(N3)]AFVDSY-NH2; triazole 1-5)	26	
CC(C)[C@H](NC(=O)[C@H](Cc1ccccc1)NC(=O)[C@H](C)NC(=O)[C@H](C)NC(=O)[C@H](CCC(N)=O)NC(=O)[C@H](CCCNC(=N)N)NC(=O)[C@H](Cc1c[nH]c2ccccc12)NC(=O)CCCCCNC(=O)[C@@H](N)CCCCN)C(=O)N[C@@H](CC(=O)O)C(=O)N[C@@H](CO)C(=O)N[C@@H](Cc1ccc(O)cc1)C(=O)O [SBL-PX1-214] (H-K[Ahx]WRQAAFVDSY-OH)		inhibition at 100 µM (Panx1 channels [1]; EA.hy 926, 100 µM, 30 min HOS stimulation, read-out: % ATP release inhibition at 100µM (in EA.hy926 cells)): 30%
CC(=O)N[C@H]1CCCCn2cc(nn2)C[C@@H](C(=O)N[C@@H](C)C(=O)N[C@@H](Cc2ccccc2)C(=O)N[C@H](C(=O)N[C@@H](CC(=O)O)C(=O)N[C@@H](CO)C(=O)N[C@@H](Cc2ccc(O)cc2)C(N)=O)C(C)C)NC(=O)[C@H](CCC(N)=O)NC(=O)[C@H](CCCNC(=N)N)NC(=O)[C@H](Cc2c[nH]c3ccccc23)NC1=O (Ac-[Lys(N3)]WRQ[Pra]AFVDSY-NH2; triazole 1-5)	20	
Ac-SWRQA*FVD*Y-NH2		cleaved bond (human plasma; up to 24 h): R-Q, major; also recorded: A-*, major
CC(=O)N[C@@H](CO)C(=O)N[C@@H](Cc1c[nH]c2ccccc12)C(=O)N[C@@H](CCCNC(=N)N)C(=O)N[C@@H](CCC(N)=O)C(=O)N[C@@H](C)C(=O)N[C@H]1CCCCn2cc(nn2)C[C@@H](C(=O)N[C@@H](Cc2ccc(O)cc2)C(N)=O)NC(=O)[C@H](CC(=O)O)NC(=O)[C@H](C(C)C)NC(=O)[C@H](Cc2ccccc2)NC1=O (Ac-SWRQA[Lys(N3)]FVD[Pra]Y-NH2; triazole 6-10)	32	
CC(=O)N[C@H]1Cc2cn(nn2)CCC[C@@H](C(=O)N[C@@H](C)C(=O)N[C@@H](Cc2ccccc2)C(=O)N[C@H](C(=O)N[C@@H](CC(=O)O)C(=O)N[C@@H](CO)C(=O)N[C@@H](Cc2ccc(O)cc2)C(N)=O)C(C)C)NC(=O)[C@H](CCC(N)=O)NC(=O)[C@H](CCCNC(=N)N)NC(=O)[C@H](Cc2c[nH]c3ccccc23)NC1=O (Ac-[Pra]WRQ[Orn(N3)]AFVDSY-NH2; triazole 1-5)	14	
CC(=O)N[C@@H](CO)C(=O)N[C@@H](Cc1c[nH]c2ccccc12)C(=O)N[C@@H](CCCNC(=N)N)C(=O)N[C@@H](CCC(N)=O)C(=O)N[C@@H](C)C(=O)N[C@@H](C)C(=O)N[C@@H](Cc1ccccc1)C(=O)N[C@H]1Cc2cn(nn2)CCCC[C@@H](C(N)=O)NC(=O)[C@H](Cc2ccc(O)cc2)NC(=O)[C@H](CO)NC(=O)[C@H](CC(=O)O)NC1=O (Ac-SWRQAAF[Pra]DSY[Lys(N3)]-NH2; triazole 8-12)	30	
CC(=O)N[C@@H](CO)C(=O)N[C@@H](Cc1c[nH]c2ccccc12)C(=O)N[C@@H](CCCNC(=N)N)C(=O)N[C@@H](CCC(N)=O)C(=O)N[C@@H](C)C(=O)N[C@@H](C)C(=O)N[C@H]1Cc2cn(nn2)CCC[C@@H](C(N)=O)NC(=O)[C@H](CO)NC(=O)[C@H](CC(=O)O)NC(=O)[C@H](C(C)C)NC1=O (Ac-SWRQAA[Pra]VDS[Orn(N3)]-NH2; triazole 7-11)	6	
